Test results from the domain aggregation screens of Martell et al. (2025).

Experiment: soluble fraction after stress (log2 fold change); higher = more stays soluble; pooled small domains, quantitative proteomics
Settings: stress: 50 degC
How it was run: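 After stress at 50°C, the amount of each protein still soluble was measured. This was done on pooled custom libraries of small protein domains, using high-throughput quantitative proteomics. The figure given is a base-two log fold change and stands for aggregation propensity, with higher values meaning more protein stays in solution.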

| Sequence | soluble fraction (log2) |
| --- | --- |
| HMSTASPEELRQTPERRRLIEYLREHGGHGRTSEIAAALGIDDSTASRLLRRLADNGLIVRTQYGEYTLLQ | 0.0183 |
| HMSTEAVVMSSSVSVKSSPDKASTDLFVLHEGTKVRTVSELGDWREIVIADGKKGWVEARTIET | ≥ 0.62 |
| HMSTEPLALVGKTGIAATVLRPSGRIEVDDKYYDAVSLGAFIEKGEMVNIVKYENLQLYVAKL | -0.0644 |
| HMSTFAQNLRALMEKRGVSQNELARSAGLTQSAINKILTGKTKQPGIDTTEAIARVLNVSVAQLIYT | -0.303 |
| HMSTFTPYLVKVTTSVLNIRKGAGTNYGTNGSIRDMGTYTIVAEADGQGASKWGKLKSGAGWISLDYTKK | -1.94 |
| HMSTILERLIMLQEQSGMNQKQLQKELGLSNSAFSDWKKGKGRPSVEALVRFSEFFGVSMDWLAFG | -2.09 |
| HMSTKRQKELLEYVDRFITEHGYGPSYREIMNAIGYKSVSTVAIHIDGLIAKGYLRKRDNSARSLEVV | -0.716 |
| HMSTKYSSNIISLVKGLMEEDQYKDLMGPPLKKEIIKKVESITDTFPYKFDKDDKEFIVKKVLISLRK | -1.29 |
| HMSTLKSALDEIPGIGAARKRALLNHFGSTRVISSVGVKDLEQVEGVSKKIALLIYGYFHDK | -2.06 |
| HMSTLSIHIPDKFAGQRLDQALAELYSQFSRSRLQQWLNDGELLVDGKSVKANKKVLGGEFIQILK | -0.861 |
| HMSTPENLGGRNTAKARISWLENGVKQELESDFPAAEVVKLSSRFGGEVPELTVIRPSLEDIYLKMIG | 0.0409 |
| HMSTPLVATLRKRIIDGHYPPGERLAEIPVAEAFGVSRTPVRLAFRTLEQEGLLEKAGKRGYAVRA | 0.0325 |
| HMSTQVPDVKERSQEEARSILESAGFKVTPAVKTEDSADIAKDMVTKTDPAAGQSVPKGTTITIYVSS | 0.149 |
| HMSTRLIGEIGVVTKDLGAGLKENGSIQIGREEWPAETKDMEHIPMGTRVKVIHIEGTRLVVEA | -0.629 |
| HMSTSRAEIIAFLKSNPSSEYKHELETKLDEMDWAEAVKGNSEESFLAYKQRQPNGTHNGEADEKLKVLLV | 0.191 |
| HMSTVISPLPGNIIKVLVPEGKSVKRGDTILTIESMKMENSIKAAYDGVVKKIYVQQAQIVMQGDPLFDL | -1.24 |
| HMSVALSENIKTRRKALKMSQEYVAEQLDISRQAVAKWEAGKSEPTTENLVKLAALFEMSVSELVE | -0.369 |
| HMSVDDVALRLEFGPSDAEALAFVHRHGAILSETTDRDTGVVSVHVRLSEADAGRFNQRYGV | -0.183 |
| HMSVDDYLKFSGSGTYWNTQDRGKTYLVNGQQRPLRDKEYLPDVMHRHVIDFITKHRDRPFYIYYSM | 0.0643 |
| HMSVDVEGNQRIPTEQVLSELRDVGVSFGKRVSGLNADTIRNQMIINNDEIAWLGVNVRGSRVYVEITERI | -0.018 |
| HMSVERIEPPLPLIDTLLALRDALERPLSREENAFLSRRFAGGATRAQIDALAAQFRGAAAAESKV | 0.104 |
| HMSVETSDLLPLIEQVLSLNPDKVKEYQNGKKGLLGFFMGQIKQTAGVAIDVGTLKPLLEDALHKDL | -0.493 |
| HMSVEYRKTLSDGNEYQIVKEKNGYVIKKSLNEGLDYLEPMKNRKYYSSYSQAFKRLNLIAKEVNINEGYD | -0.138 |
| HMSVFGMEIGKTTEAEAGRMYRLNKEQLNPYSGGYQYSVNPKAIDFSGLEQVTLIFDEKKVLVYVQAV | -0.0837 |
| HMSVIETLLSDREREVLTHLVNGYDAKRIAEITGISTLTVRKHIANIYTKLHVNSKAQVISMAHKNKWF | -0.657 |

| Sequence | soluble fraction (log2) |
| --- | --- |
| HMSVIKERLTEFLTYKGIGQIKFAEAAGLSRGFVNVLGDGISSKSLNKISQAFPELNTLWLTTGEGEML | -1.91 |
| HMSVKTIRKTEFAKRLYSLMLEKNWNQSDLARASGMGRDSVSQYIRANNTPSPQNLKKLAEALGVEPVELY | -1.3 |
| HMSVKYLQIYHAIREKILSNEYAINQQLPDEITLTKEFNSSRMTVKKALDLLVSEGLIFRKRGQGTFVLSR | -2.27 |
| HMSVLDEVRKLSFHQRNAVFLFYFEGYSMKEIAQIFHVKEGTVSSWLTRARKQLRKQMEEEVLYDESLP | -0.526 |
| HMSVLLDDLSPREREILQLVVEGHSSTKIAGMLGLASATVDTYRSRLMAKLHIDNLPDLVRFAIRHGLIS | -1.22 |
| HMSVLLKEEGSLQLARHGAAYFIIYSAQEHPNQRRHLKISEEESNRIMEGTPIEEIFLAYSG | -0.291 |
| HMSVLQGLIESFKAGDRNLYEVAERLNVTEPFLAEALKDYRARFPKGVQVDNFWISFRPYLTIAEV | -1.41 |
| HMSVNEKVRLFRELNQWSQEEMAERMNMSVAGYAKIERGETNISLHKLKQIASVLQIDLLDLVS | -0.32 |
| HMSVPEAAERAIDVAQMRRALGELSPEQQRVLELAYFGGLTRQEIARATGTPLGTVHTRARLGLQNLRARL | -0.299 |
| HMSVPRVWTDIQGRRVKGDFEGLRGDLVVLRVGGKSYAFPLVRLIASDQAYARSLVAGNPSK | -0.499 |
| HMSVPSLVGKTDSEAQSAIKSAGLKVGTVTYQYSDETEKGYVVSQSPYSGNKVNAGSTVNIVVSKGK | -0.0367 |
| HMSVPSVAAVREQTGLSQVKFASLLGVSVRTLQEWEQGRRAPSGAARTLLMVAAKNPQALLEV | -0.584 |
| HMSVSVEEDADGRVWVYYQDQKMDITDLFDENGVYGFNLEKGDRTVYVEVTKNADGTYSFTQTD | -0.0127 |
| HMSVTIENQINTYFQTRDKISRDELVALIKKDFANWTDNTINIYVSSLQKRGIIHSLSRGMYALGN | -1.98 |
| HMSVTYRLLITSSPGQAEVFLDGKRVGITPFSARLAAGWYQVRVSKEGYNLWEQHVQLREDQRLTATLT | -0.471 |
| HMSWAAQVVDKMTNDQLIKSLNEIVNTGKQLGLDITVEQNGDKNFIMTVKDSKGNVQLVTPIG | -0.0133 |
| HMSWEQELIEKANEIIDLYPEKRSALGPLLYLAQERDGYISDESIVEISNLVGITEVQVKSVASFYSMYK | -3.57 |
| HMSWNIHEAVEYYKGQDAPQNQFALVELLKEVQEHNGGVLTDIAVEEIAALLNTKVTFLNAVIKRYPSLK | -0.287 |
| HMSYEDLIQAVSGHFGIEIRALLSEDRKKENMIPRQVAMYLLKNKLHYTYERIGNIFSGRNHTAVMYSV | -0.193 |
| HMSYGKVQFVIDAKDAVLSIDGKETDYEKPVKLTYGSHTITVYSSDYDTWKRNLYVNSEKSTVVINLA | -2.72 |
| HMSYKDIKEASDTGTYRDEENNIDVKWQKLFNGHNEYFDIEAYRDGERVEINNQQADRYIYLIKQEMD | 0.025 |
| HMSYPEIFQSLTEREQKIADMIAEHLSNKEIAEKMFLSEGTIKQYINQIYSKLQITGDIRNKRKQLIELFH | -1.16 |
| HMSYTPGQWVEASMPNATFFRIVPSGNATADKMLAVATPMKVISTSGTYVKVELDSGDVGFVPEIMV | -0.46 |
| HMTAEASELRERIRAAMATLPPAQQRVIELAYFEGLTQREIAALLNEPLGTIKTRMRLGMRKLKDVL | -0.747 |
| HMTAIKAGDLVKITGTKYYGGQTIPGWVKNQNWYVQEVSGDRAVINKNESGTNAIMSPIRVSDLTPVS | 0.183 |

| Sequence | soluble fraction (log2) |
| --- | --- |
| HMTALPPNVSIDSDERRLLEAIGFDPVDMDVLARDGQFSSVDLFRLLVSLELKGLVENQHGAYQRL | -1.31 |
| HMTALSAREHEVLQLITRGYTADEIAAMLQISRHTALTYVRRIYSKLKVNSKAEAIFEVRQR | -0.577 |
| HMTANPHKPEPLQIDTSDITPGVTVIHKAFGNGTVVSVDNNRILIDFDGIEKKFPFPGAFLYGFLQK | 0.132 |
| HMTAPDDFIRAEVTASGKNGMAVAELSKRVRTRFKSFKVRELGYPHLAGYLADVEGVRVYKQGRENWVAK | -0.905 |
| HMTAQASDIEKVLQVIETLGFRGHTLPGENRTAIGVTGNRGSIDPAHFENLPGVADAIRVTKPY | 0.0639 |
| HMTARPTLEKLKYMIHEAGITENSLKVIVATKGHYGLDADISTYSDDFITRWIIPNWTKIVQTISNNK | -0.348 |
| HMTASSYMGMQLGRLEELLKKEVLSLSEKTELKDLISDFDKIPEVVSPKIIGRYLQLKNQHFAKINA | -0.0763 |
| HMTAVVPNFKGKLISELSNFVADKNVRYTIIDSIYDPEEKSGIVIKQDPEEKTQVKHNRIIYLYVTST | -1.53 |
| HMTDDFAGRFNELLIHNQETAVTAATRLEVSPAVITKWRQGKSIPSGEYIKRIVETYHVSADYLLGVIDTP | -0.445 |
| HMTDEEFSRIVKYTAVRYGINLYHKKVMVEGRLSNYLAANGFKSYTEYMDRVEADYTGQEAQNLINILTT | -0.258 |
| HMTDFDPDGREKLIKVQKALHFNNHQLADALRVGQATFSSYIYGRVAAGVPVRVVKAAEDLLKNSKATV | -0.303 |
| HMTDFDWSLFTQQLKRFNLFLSYDDREKLQTFQTLYGLNELDLAEYVAKASAGEKNGLNFNYLRQLINKEK | -0.465 |
| HMTDFNTFSDAIIAAVGSRASGLKVVDNAVSVMVDVSGLNEDQRVEIEADVRAAAEHAGAQSVRIMLT | -0.438 |
| HMTDLALHIGKTLRELRQRRGWSLDKTAQATGVSKAMLGQIERGESSPTVVTLWRISSGLQASFSEFLPP | -1.61 |
| HMTDLDVAVTMTVALEEAVNGATRRVRLPNGKELNVKIPAGVAAGQQIRLKGQGETAPGHRPGDVLITVNI | -0.262 |
| HMTDLQNDIQAFNLKKMSYQHETKKLEEKRNPEKLEKLEQDIQALYLRIMENPNMRAFDSAKQALYLQIM | -0.773 |
| HMTDLVVGLAGITLEPLRPAGKAEFNGSVVDVVSLGDYIEKSTAIQIVEIEGNRIVVHHGED | -0.0705 |
| HMTDQYEVQNLVGLTVREAQEKEGVKDIFEVREVGSEFSAEYDAGLIVRQSPDAGEQRKGEGLVIEVWVSA | 0.0425 |
| HMTDSLELADLLRRAIITGEYKPRERLVEMELAQKYSVSRTPVREALKHLEALGLVKMERYKGAMVAD | -0.46 |
| HMTDSQLVEAENHVALRQAMAHLGPRERELIGLYYFEEQSQTQIAARFGVSQMQVSRWLTSAVGRIRGQMA | -0.00256 |
| HMTDWNTVEKETLSAIQKVLSGQASWIDLSPADHSIRHMQHEMVQQAGLISQSYGKEPMRRIRIYQNP | 0.117 |
| HMTEDADIERRLTGILASAGWYRSLAVEVKEGIVYLDGATASGNHRDWAGSLAAKTEGVVAVVNRIEVQP | -0.238 |
| HMTEDIAVRILEFLEDNNGFYALNDKTPSEKIHDLFGVSKKKFKIALGGLYKQRLITVSDAGVTLVK | -1.29 |
| HMTEDTPIIVERVVADIDENVVAIVRKFKDAFKSITAQREIKKKLRSILWVNYQIKDQEVFDKAYQYIEMY | 0.0204 |
| HMTEEDVVIFSGLSDRDLKMVQTELANSGIKYTLPTSGTVSVPNSEIARAQMVLAMAGIPRS | 0.167 |
